The supplement of paper PMC9170038

Test system: K4 kissing-loop RNA reporter
Assay: apparent KD of K4 kissing-loop reporter; higher = weaker reporter binding
Details: Eterna round: R107
Method: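 RNA-MaP round R107: designed RNA switches with theophylline, tryptophan, arginine or FMN aptamers are transcribed on-chip within common flanks. They are titrated with a labelled K4 kissing-loop RNA reporter in RNA-MaP buffer (100 mM Tris pH 7.5, 80 mM KCl, 4 mM MgCl2), without ligand or with the indicated ligand. Median apparent KD per design.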

[1] = input ligand: theophylline 20 uM
[2] = input ligand: tryptophan 2.4 mM
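Also: bound reporter read as fluorescence of individual clusters on recovered sequencing chips by microscopy, with normalized cluster intensities fitted with a binding model.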

Sequence	apparent KD of K4 kissing-loop reporter (input ligand: FMN 200 uM) [µM]	apparent KD of K4 kissing-loop reporter (input ligand: arginine 13.2 mM) [µM]	apparent KD of K4 kissing-loop reporter (input ligand: none) [µM]	apparent KD of K4 kissing-loop reporter [1] [µM]	apparent KD of K4 kissing-loop reporter [2] [µM]
ACGUGCACCAGUGAUGUUGGAAAAUAUGAAGGAGCGUGCGAAAGCACAGGUAGGUCGCAUAAUAGCACGAGCCACGAAAGUGGCA [#SwitchBubble 6 #K4Early #Sliding]	0.131	0.159	0.134	0.132	0.102
UGUAUGUGAUUUGAUACCAGACCAUCUUGUGAGAAAUGAGUGAUGUUUAUUUUGGUUUGGGUCCCUUGGCAGCAAAUCGCAUACU [KL-SSTheoB24]	0.507	0.356	0.505	0.419	0.439
CGCAGUGAUGUUGCGAGUAGCUACAGGGAAGGAGCGCUCUAGUGAGCAGGUAGGUCGCCCACGCAGUGAUGUUGCGUCAUAGGGU [Exclusion Arg A GF9]	0.116	0.11	0.113	0.113	0.101
UUAGCAGUAUACUGCAAGACCUAUACUGAUACCAGAGCCUAUAGGCUCCCUUGGCAGCGGAUCGAGUGAUGUUCGUAAGGUCAUU [AK4.3 SS Theophylline A]	0.651	0.667	1.08	0.682	0.458
UGGCGAGUGAUGUUCGUUGUUGUUGUGUGUCGAGGACCGGUACGGCCGCCACUCGAGUUGGUUGUUGUUGUUGCUGUUGUUGCUG [#04 K4 Tryptophan A Same State]	0.158	0.124	0.155	0.131	0.0876
UCGAGUUGACGAAGAGUCAACUCGUGUGAUACCAGUGACGAAAGUCACCCUUGGCAGCACUAUGCUAGUGAUGUUGGUAUUUAAG [#08 K4 Theophylline A Same State]	0.19	0.0927	0.179	0.105	0.127
AGUACAAUGGCGGCCGCCACUCAAUGGCAGAUCAAAGAUCUGUAUCACUCAGUGAUGUUGAGUGAGAGGACCGGGCCUUUGUACA [Omei KL Tryp B SS B v9]	0.604	0.477	0.5	0.514	0.187
UGAUAGCCAGUGAUGUUGGCAUAUACUGAAGGAGCGCGUGAAAACGCAGGUAGGUCGCAGUUCCUUGCCAAUUGAUCGAAAGAUC [#08 K4 Arginine A Exclusion]	0.162	0.2	0.183	0.207	0.162
CGAUGGAUGGCAGGAUAUAGACAUUGAGUGAUGUUCGAUGAUUAUCCAUAUUCCCGUCACCUAUGACUAGAAGGGCCAUCCAUCG	0.236	0.485	0.464	0.587	0.577
GCUACCUAUGCAGGAUAUGGUAUUACGAGUGAUGUUCGAGGCGAAUAGAGUGAUGUUCUAUUUCCACCAGAAGGGCAUAGGUAGC	0.143	0.0971	0.125	0.137	0.124
ACUAGUUAAUCGGCCGCCACUUCUAGUGAUGUUAGAAUUAUCCAGAUUAUCAGCGUAGCACAUUGAAGGACCGGGAUAAGGUGGU [theeternabot_exclusion_KL_Trp_B_2]	0.275	0.236	0.269	0.273	0.261
GGAUCCACCAGUGAUGUUGGAGAAAACUCCAAGGAUAUGACGAAAGUCAGAAGGUGGUAGACUGGACAAAGUCCGGUCGGAUCCA [FmnA 23 #SwitchBubble #K4Early]	0.719	0.113	0.126	0.0681	0.16
ACGCGCGCGAGUGAUGUUCGGAGCGGCUGGCAGGAUAUGUAGCAAUGCAGAAGGGUCGUGGCGGGCGCGGCGAAAGCCGCGCCCG [#2 Exclusion - FMN A Attempt #6 (HarryS)]	0.15	0.282	0.444	0.622	0.293
CGCUGGGCGAGUGAUGUUCGCUCACGUGAUACCAGUGCCAUCCAACACCCUUGGCAGCACGCGGGCAGUGAUGUUGUCCUUGUGG [Exclusion Theophylline A GF7]	0.284	0.241	0.285	0.269	0.268
GGAUCCACCAGUGAUGUUGGAGAAAACUCGAAGGAUAUGACGAAAGUCAGAAGGUUGUAGACUGGACAAAGUCCGGUCGGAUCCA [FmnA 23 G30+U56]	0.843	0.466	0.549	0.59	0.421
GCGCGUCAUGUCAGCGGUGCCUAUGUCGAUACCAGCGCCGCAAGGCGCCCUUGGCAGCGACGCGCUGGAGUGAUGUUCCAGCGUG [#2 Exclusion - Theophylline A Attempt #11 (HarryS)]	0.148	0.127	0.153	0.138	0.132
AAAACUAUCAGAAGGAGCGUGGAAUAUUCAUCUGUAUUUAAUACGAGUGAUGUUCGUAAUUCACAGGUAGGUCGCUGAUCAAUAA [whbob_Ex_Arginine_B_2th154]	0.269	0.253	0.306	0.305	0.254
UGACUGGACUGAAGGAGCGUUGAAGGAGCGUAGGCAGUGAUGUUGCCUACAGGUAGGUCGCAGCAGGUAGGUCGCAGUCUAGUCU [ArgBS 27 #DoubleAptamer #SwitchBubble]	0.132	0.0921	0.108	0.0661	0.107
AGAGUUAUGCGAGGAUAUGCGGUUAGUACUCAAAGAGUACUAACGCAGAGUGAUGUUCUGUGAAACACAGAAGGCGCAUAACUCA [Omei KL FMN B SS B v1]	0.854	0.16	0.475	0.448	0.441
AAAUUCUUUUUUUUAUAUAACAAUUCAGAAGGAGCGUGGUAGAACACAGGUAGGUCGCUGAAUAUAAGACUAGUGAUGUUAGUAA [JR_SSArginiA_Sub010]	0.153	0.192	0.203	0.214	0.153
UGUACCGAGUCAGGAUAUGGCGUCGAAAGACGAAUUCUAGUGAUGUUAGGGAUCUGCGAAAGCAGUUCAGAAGGGACUUGGUACU [FmnBS 26 U36+U67]	0.243	0.288	0.342	0.47	0.36

Sequence	apparent KD of K4 kissing-loop reporter (input ligand: FMN 200 uM) [µM]	apparent KD of K4 kissing-loop reporter (input ligand: arginine 13.2 mM) [µM]	apparent KD of K4 kissing-loop reporter (input ligand: none) [µM]	apparent KD of K4 kissing-loop reporter [1] [µM]	apparent KD of K4 kissing-loop reporter [2] [µM]
UAGUCCUAGUGAUGGUCAUCACGUGGUGGGCGAGGACCGGUACGGCCGCCACUCGACUUUGCAGUGAUGUUGCAAACCGGACAAU [Exclusion - Tryptophan A (Freestyle 19)]	0.333	0.322	0.311	0.354	0.298
CGGCUUAGUAGCGCGAGUUGACGUGCCAUCCGAGGACCGGUACGGCCGCCACUCGUGAUCUGUUAAAGUGAUGUUUUAAUGCCAU	0.722	0.602	0.712	0.711	0.639
UGCCGCAAGGCGAGCGCUCCCACUCCGGAAGGAGCGCCCGUAAGGGCAGGUAGGUCGCCGGAGUGAUGUUCCGGUGGAGGGCUCG [#2 Exclusion - Arginine A Attempt #24 (Inspired by Omei)]	1.27	0.283	0.537	0.398	0.351
UAAUUUAUCGCAGGAUAUAGCCAUAAACCGGUCCUAAGGGACCUUCUGGGCAGUGAUGUUGCCCGGCUAGAAGGGCGAGUUCACC [Anenlagema]	0.115	0.105	0.116	0.103	0.105
UUGCCUCUGGCUGAUACCAGUGAUGCAGGGUAUGAAACAGGGAGUGAUGUUCCCUGCAGCCACCCUUGGCAGCAGUUUAAGUUUG [Exclusion Theophylline B GF 21]	0.182	0.152	0.181	0.158	0.16
GAGAUAGAGGCGGCCGCCACUAGUGAUGUUAGUGAUGUUAGAUAGAGAAUAGAACAGAGGUAGGAUAGGACCGGGCCAGAUAGAG [whbob_SS_Tryp_B_w31]	0.0906	0.0653	0.0624	0.077	0.0837
GGGAGUAGUGCGGCCGCCACUGUGAAAGUAGAAGAAUAUAGUGAUGUUAUAUAGGAUUAAAAGAAUAGGACCGGGCAUUAGAUUU [SSTRyptB.W]	0.176	0.207	0.219	0.186	0.209
CGUCUAUAGCAGGAUACCAGUACCCAUUAUGUACGUUUAUAGUAGAGUGAUGUUCUAAAGUACCCUUGGCAGCUUCCUGUGACCC [#24 K4 Theophylline B Exclusion]	0.179	0.189	0.189	0.206	0.163
AGUUAUGUUGCGGCCGCCACUGCGCGAGUGAUGUUCGUGGCAUAUAUAAUGUUAUAUAUGCAUCACAGGACCGGGCGGCAUAGCG [Same State - Tryptophan B]	0.512	0.313	0.375	0.329	0.152
UGUCAUUGGUCGGCCGCCACUCCGUAACGAGUGAUGUUCUAAAAGACGGAUCGAAAGAUCUGUCGGAGGACCGGGACCGAUGACU [FiskerMod 7 - Jieux - Same State - Tryptophan B]	0.725	0.149	0.448	0.199	0.9
ACGUAGUUCUAGGAUACCAGCCAAGGUGCCAGGACAAAAGUCCUGGCAGUCAGUGAUGUUGGCCCUUGGCAGCCUAGAACUACGA [Omei KL Theo B Exc B v8]	0.176	0.196	0.215	0.209	0.218
UGAUACCAGACGGCCGCCACUUCUGCAAGUCAAAGACUUGCUAAGGGAAUCGUCCAGUGAUGUUGGAGGACCGGGUCUGGUAUCU [FiskerMod 2 - Jieux - Exclusion - Tryptophan B]	1.05	0.823	1.2	0.999	1.05
GGCAUAUAAAAUUGCCUAGAGAGAAAGGAUACCAGCACCCGGCGGUGCCCUUGGCAGCCUAGCCCAGUGAUGUUGGGUCCUCUAA [Esinvege]	0.237	0.13	0.189	0.235	0.223
UUUCCAGAUAAGUGGGAACACUCCAUAACAGAGGAUAUCAGAGCGCUGAGAAGGCUGUUUUACAGUGAUGUUGUAAGUGUGGAGU [FMN A SS t2]	0.153	0.249	0.283	0.304	0.253
UCUGGUAUAUCUGAUACCAGAGUAUAGUAUCAAUUGCAUAUGGAGUGAUGUUCCAUAUAACUCCCUUGGCAGCAGAUCUAUCUCU [Same State Theophylline B GF 25]	0.292	0.308	0.325	0.386	0.288
GGAUAGGACUGAGGAUAUGGUAGUGAUGUUACCAAACUGGUUAAACAUGUCAGAAAACUGGCAUGACCAGAAGGCGGUCCUAUCG [FmnBX 27 U10+G76]	0.104	0.0655	0.0725	0.0553	0.0572
UGUGGAGGAUAUGAUACCAGCAGUGAGAGAGAGGAAGUAUAGUGAUGUUAUAUGAGAGAAUGCCCUUGGCAGCGUGUGUAGUAGG [SSTheophylB.J]	0.189	0.165	0.2	0.153	0.21
UACAAACGUAGUGAUGUUACGUACUCUGAUACCAGACAACUCUAAGUCCCUUGGCAGCAGUCAUUUUGCUUAUUAUUUUCUCAAA [JR_ExcTheophyA_Sub018]	0.0865	0.102	0.092	0.0985	0.0752
CAUUCAGUGAUGUUGGAAGGCGAGCGGGAUACCAGCGGAGACUCACGCCCUUGGCAGCCCAUAUAUCCCAGGUAGAUAAUAGUUC [Same State - Theophylline A (Freestyle 5)]	0.276	0.117	0.217	0.219	0.201
UUCUUGAUGGAAACAUCGAGGAUUACUGAUACCAGUAUCGAUAGAUACCCUUGGCAGCAGAAUCAGUGAUCACGAGUGAUGUUCG [Ex Theophylline A K4 10]	0.655	0.551	0.733	0.564	0.569
GUUGAUCAUGGAAGGAGCGCCCAUUGUCGACACGAGUGAUGUUCGUGUCGUUGAUUACGAGGGCAGGUAGGUCGCCGUGUGCUUU [Rabele]	0.149	0.109	0.124	0.116	0.119
